Measurements reported in patent US20220356228A1.
Substitutions are numbered along the chain they refer to.

B1: 6G5 (antibody, V domains shown)
VH: QVQLVQSGAEVKKPGASVKVSCKASGYTFTNYDIHWVRQAAGQGLEWMGWTNPNSGNSDYAQKFQGRVSMTRDTSMRTMYMELNSLRSEDTAVYFCARKIWVGTTIFDYWGQGTLVTVSS
VL: DIQMTQSPSSLSASVGDRVTIACRASQSIYRFLSWYQQKPGTAPKLLIFAVSSLQSGVPSRFSGSGSGTDFTLTISSLHPEDFAIYYCQQSDSPPLTFGGGTKVGIK
B2: 6H7 (antibody, V domains shown)
VH: QVQLVESGGGLVKPGGSLRLSCAGSGFTFSDHYMSWIRQAPGKGLEWVSYISTSGRTIFYVDSVKGRFTISRDNAKNSLYLQMNSLRAEDMAVYYCASDYYDNVGWNYWGQGALVIVSS
VL: DVVLTQSPLSLPVTLGQPASISCRSSQSLVYSDGNTYLNWFQQRPGQSPRRLIYKVSDRDFGVPDRFSGSGSGTDFTLKISRVEAEDVGIYYCMQGTHWPRTFGQGTKVEIK
B3: 8C3 (antibody, V domains shown)
VH: B2 VH with G24A, F59H, V61A, N107D, A113T, I116T
VL: B2 VL with L4M, V30L, F61S, E86D, I90V, T97A
B4: 5G5 (antibody, V domains shown)
VH: LVQLVESGGGLVKPGGSLRLSCTASGITFSDLYMSWIRQSPGKGLEWISYISTSGRTIYYTDSVKGRFTISRDNAKNSLFLQMNRLRADDTAVYYCAGDYYDNSGWDYWGRGTLVTVSS
VL: B2 VL with D1N, L4M, T14A, S26G, F61S

Target: JCV major capsid protein VP1, wild type (John Cunningham virus (JCV)) (UniProt P03089)
Sequence (P03089 whole entry): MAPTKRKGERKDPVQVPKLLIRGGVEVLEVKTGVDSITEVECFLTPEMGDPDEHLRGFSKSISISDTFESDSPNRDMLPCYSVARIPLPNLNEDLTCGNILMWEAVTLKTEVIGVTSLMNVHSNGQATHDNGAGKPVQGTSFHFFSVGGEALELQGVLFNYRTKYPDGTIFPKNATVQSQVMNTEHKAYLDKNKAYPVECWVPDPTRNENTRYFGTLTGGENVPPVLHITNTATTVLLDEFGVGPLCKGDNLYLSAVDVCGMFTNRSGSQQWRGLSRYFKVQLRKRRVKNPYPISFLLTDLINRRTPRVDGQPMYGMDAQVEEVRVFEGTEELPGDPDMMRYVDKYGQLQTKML
Assay: cell-based or functional assay

Row | Binder | Neutralization of WT JCV: EC50 [pM]
1 | B1 | 3.1 pM
2 | B2 | 0.5 pM
3 | B3 | 14 pM
4 | B4 | 0.4 pM
